Assay results published in PMC3674885.
Like-named read-outs stand apart in the source and are kept apart here.

B1: Δ9/13 NGF mutein (protein)
chain: SSTHPVFHMGEFSVCDSVSVWVGDKTTATDIKGKEVTVLAEVNINNSVFRQYFFETKCRASNPVESGCRGIDSKHWNSYCTTTHTFVKALTTDEKQAAWRFIRIDTACVCVLSRKATRRG

What was measured:
[1] = target: TrkA receptor (rat) on MG139 cells (rat) (UniProt P35739); test: radioligand binding
[2] = target: both classes of receptors (TrkA and p75) on PC12 cells (rat (endogenous in PC12)); test: radioligand binding
[3] = target: TrkA receptor (rat) on MG139 cells (rat) (UniProt P35739)
[4] = target: TrkA receptor (rat) on MG139 cells (rat) (UniProt P35739); test: radioligand binding; remark: listed apart in the source
[5] = target: both classes of receptors (TrkA and p75) on PC12 cells (rat (endogenous in PC12)); test: radioligand binding; remark: listed apart in the source
[6] = target: high-affinity site on PC12 cells (cold-temperature, cold-chase stable binding) (rat (endogenous in PC12)); test: radioligand binding
[7] = target: 7-84-103 NGF mutein (F7A/H84A/R103A); test: native gel or EMSA + other: high-performance ion-exchange chromatography; settings: native gel or EMSA + other: high-performance ion-exchange chromatography (HPIEC)

UniProt P35739, sequence (P35739 33-799): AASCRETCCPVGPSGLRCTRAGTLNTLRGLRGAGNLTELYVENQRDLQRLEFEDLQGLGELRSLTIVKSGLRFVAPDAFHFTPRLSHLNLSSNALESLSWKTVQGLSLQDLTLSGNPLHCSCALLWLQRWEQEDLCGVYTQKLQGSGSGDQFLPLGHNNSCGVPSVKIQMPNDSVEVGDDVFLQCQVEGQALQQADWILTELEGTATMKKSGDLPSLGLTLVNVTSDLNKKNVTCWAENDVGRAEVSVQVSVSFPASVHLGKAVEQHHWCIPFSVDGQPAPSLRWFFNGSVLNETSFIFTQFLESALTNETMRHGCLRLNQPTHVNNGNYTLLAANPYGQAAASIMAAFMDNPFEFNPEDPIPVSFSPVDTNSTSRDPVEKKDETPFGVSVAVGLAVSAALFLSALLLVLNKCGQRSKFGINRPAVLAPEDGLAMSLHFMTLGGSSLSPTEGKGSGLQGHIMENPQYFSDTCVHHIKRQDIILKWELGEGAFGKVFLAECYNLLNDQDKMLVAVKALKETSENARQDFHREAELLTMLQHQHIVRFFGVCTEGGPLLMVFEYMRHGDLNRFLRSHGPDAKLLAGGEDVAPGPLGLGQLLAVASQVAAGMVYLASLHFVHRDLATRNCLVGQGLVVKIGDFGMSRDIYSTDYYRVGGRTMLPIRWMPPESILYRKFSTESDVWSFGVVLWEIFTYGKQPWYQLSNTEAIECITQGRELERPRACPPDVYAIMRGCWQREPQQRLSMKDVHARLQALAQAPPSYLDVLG

Molecule	IC50 [1] [pM]	IC50 [2] [pM]	XTT assay of survival of MG139 cells (TrkA+/p75-), 72 hr, EC50 [3] [pM]	trypan blue survival assay of PC12 cells (TrkA+/p75+), 72 hr, EC50 [3] [pM]	IC50 [4] [pM]	IC50 [5] [pM]	neurite outgrowth of PC12 cells, 48 hr, EC50 [3] [pM]	percent of the cold-chase stable ^125I-NGF binding competed away [6] [%]	percent of ^125I-NGF binding left at the plateau of the competition curve [2] [%]	percent of the protein as heterodimer Htm1 in the 1:1 mixture (Mix1a) [7] [% in Mix1a]	percent of the protein as heterodimer Htm1 in the 1:2 mixture (Mix1) [7] [% in Mix1]
7-84-103 NGF mutein (F7A/H84A/R103A) (ligand)	11500	2450	17000	1260	15000	1900					
Heteromutein 1 (heterodimer of the Δ9/13 and 7-84-103 NGF muteins) (from UniProt P01139 122-241) (complex)	670	590	19000	470	640	530	1800				
wild-type nerve growth factor (unlabelled) (from UniProt P01139 122-241) (ligand)	30	250		280							
Δ9/13 NGF mutein (from UniProt P01139 122-241) (ligand)		460				510		27	20		
B1										40	37.5
